Source: US20240425571A1 (OHIO STATE INNOVATION FOUNDATION, published 2024)
Positions count from the first letter of the chain named. Each block holds one binder with its values, some of them ahead of it.

What was measured:
[1] = biological target: T1, human GARP (glycoprotein A repetitions predominant, LRRC32) on the cell surface (human, UniProt Q14392 20-662); test: FACS, Ag(+) cells, 0 ug/ml antibody (blank)
T1 construct: whole, on cells; also called hGARP; free GARP
T1 sequence (looked up): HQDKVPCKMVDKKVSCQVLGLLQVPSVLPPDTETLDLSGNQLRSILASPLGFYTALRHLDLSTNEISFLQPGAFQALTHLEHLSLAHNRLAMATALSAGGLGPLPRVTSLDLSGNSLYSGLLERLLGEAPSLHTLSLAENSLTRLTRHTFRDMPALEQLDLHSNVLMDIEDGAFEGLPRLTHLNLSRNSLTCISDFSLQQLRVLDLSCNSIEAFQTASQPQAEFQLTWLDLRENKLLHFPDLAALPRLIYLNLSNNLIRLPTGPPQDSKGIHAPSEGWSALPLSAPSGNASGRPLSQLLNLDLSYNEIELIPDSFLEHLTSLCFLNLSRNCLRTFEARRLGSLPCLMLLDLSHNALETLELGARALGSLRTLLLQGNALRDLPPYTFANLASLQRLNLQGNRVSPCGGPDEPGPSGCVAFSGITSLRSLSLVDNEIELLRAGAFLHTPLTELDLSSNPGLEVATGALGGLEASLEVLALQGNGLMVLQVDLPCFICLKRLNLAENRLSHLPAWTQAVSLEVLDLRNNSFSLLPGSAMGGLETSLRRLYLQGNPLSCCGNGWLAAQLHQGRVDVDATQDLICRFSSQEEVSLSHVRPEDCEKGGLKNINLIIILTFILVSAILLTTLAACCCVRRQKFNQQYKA

[2] = biological target: T1, human GARP (glycoprotein A repetitions …); test: FACS, Ag(+) cells, culture supernatant, 1 ug/ml
[3] = biological target: T1, human GARP (glycoprotein A repetitions …); test: FACS, Ag(+) cells, culture supernatant, 5 ug/ml
[4] = biological target: T1, human GARP (glycoprotein A repetitions …); test: FACS, Ag(+) cells, culture supernatant, 0.2 ug/ml
[5] = biological target: T1, human GARP (glycoprotein A repetitions …); test: FACS, Ag(+) cells, supernatant heated 70 C 5 min, 1 ug/ml
[6] = biological target: T1, human GARP (glycoprotein A repetitions …); test: FACS, Ag(+) cells, supernatant heated 70 C 5 min, 5 ug/ml
[7] = biological target: T1, human GARP (glycoprotein A repetitions …); test: FACS, Ag(+) cells, supernatant heated 70 C 5 min, 0.2 ug/ml
[8] = biological target: T1, human GARP (glycoprotein A repetitions …); test: FACS, Ag(+) cells, heated-sample series, 0 ug/ml antibody (blank)
[9] = biological target: T1, human GARP (glycoprotein A repetitions …); test: flow cytometry on human Tregs (drawn table)

- MFI [1]: 9.91 MFI
- MFI [2]: 24.9 MFI
- MFI [3]: 26.3 MFI
- MFI [4]: 22.4 MFI
- MFI [5]: 25 MFI
- MFI [6]: 25.1 MFI
- MFI [7]: 21.7 MFI
- MFI [8]: 9.91 MFI
B1: huPIIO-1VH4VL2 (antibody, V domains shown)
VH: DVQLQESGPGLVKPSQTLSLTCTVSGYSITSDYAWNWIRQFPGNKLEWMGYISYSGSTSYTPSLKSRITISRDTSKNHFFLQLSSVTAEDTATYYCAKSGGDYYGSSSYWYFDVWGQGTTVTVSS
VL: DIVLTQSPSSLAVSLGERVTMNCKSSQSLLNSRSQKNYLAWYQQKPGQPPKLLIYGASTRGSGVPDRFSGSGSGTDFTLTISSVQAEDVAVYYCQNDHSYPFTFGQGTKLEIKR
notes: Humanized IgG from Expi293, tested as culture supernatant; also called H4L2; HuPIIO-1VH4/L2

- MFI [1]: 9.91 MFI
- MFI [2]: 26.3 MFI
- MFI [3]: 26.7 MFI
- MFI [4]: 25 MFI
- MFI [5]: 25.8 MFI
- MFI [6]: 27 MFI
- MFI [7]: 24.2 MFI
- MFI [8]: 9.91 MFI
B2: huPIIO-1VH4VL3 (antibody, V domains shown)
VH: B1 VH
VL: B1 VL with L15A, N22S, Q106S
notes: Humanized IgG from Expi293, tested as culture supernatant; also called H4L3; HuPIIO-1VH4/L3

- binding result [9]: binds
B3: 5C5 (antibody, V domains shown)
VH: EVKLVESGGGSVKPGGSLKLSCAASGFTFSNYVMSWVRQTPEKRLEWVATISSGGSYTYYPDSVKGRLTISRDNAKNTLYLQMSSLRSEDTAMYYCARGYDNGDYVMDYWGQGTSVTVSS
VL: DIVLTQSPASLAVSLGQRATISCRASESVDTYGNSFMHWYQQIPGQPPKVLIYRASNLESGIPARFSGSGSRTDFTLTINPVEAGDVATYYCQQTNEHPPTFGGGTKLEIK
notes: anti-human GARP clone; printed 5C5 on the sheets, 5c5 / m5c5 / 5C5 in the text; also called m5c5
